Assay in all cases: cryo-EM structure
The target in data set [1] is T1, Plasmodium falciparum myosin A (P. falciparum, UniProt Q8IDR3 1-818).
T1 construct: also called PfMyoA; MyoA
T1 sequence: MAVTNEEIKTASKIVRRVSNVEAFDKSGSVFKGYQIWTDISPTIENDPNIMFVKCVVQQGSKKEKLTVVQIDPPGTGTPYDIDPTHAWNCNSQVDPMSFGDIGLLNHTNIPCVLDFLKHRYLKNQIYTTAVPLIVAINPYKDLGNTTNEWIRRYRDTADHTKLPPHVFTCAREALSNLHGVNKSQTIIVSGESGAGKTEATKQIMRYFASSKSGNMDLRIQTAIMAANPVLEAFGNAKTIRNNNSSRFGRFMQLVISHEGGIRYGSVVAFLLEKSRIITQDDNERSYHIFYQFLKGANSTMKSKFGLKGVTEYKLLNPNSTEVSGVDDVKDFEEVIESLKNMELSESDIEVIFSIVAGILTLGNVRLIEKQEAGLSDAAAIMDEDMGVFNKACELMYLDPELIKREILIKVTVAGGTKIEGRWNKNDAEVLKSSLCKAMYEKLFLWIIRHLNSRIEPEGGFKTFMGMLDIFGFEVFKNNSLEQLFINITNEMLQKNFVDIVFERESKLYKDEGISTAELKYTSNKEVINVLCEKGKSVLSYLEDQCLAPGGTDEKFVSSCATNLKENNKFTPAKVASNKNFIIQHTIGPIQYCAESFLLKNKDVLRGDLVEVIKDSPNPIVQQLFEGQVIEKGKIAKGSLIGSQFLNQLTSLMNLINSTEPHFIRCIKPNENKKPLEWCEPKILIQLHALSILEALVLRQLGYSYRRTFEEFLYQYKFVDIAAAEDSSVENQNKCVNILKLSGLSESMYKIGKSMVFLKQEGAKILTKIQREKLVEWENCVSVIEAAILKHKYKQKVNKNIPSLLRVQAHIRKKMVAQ
The conditions noted are these: both partners purified.

A further data set concerns the target T2, MyoA:ELC:MTIP complex (P. falciparum, UniProt Q8IDR3;Q8IJM4;Q8I4W8).
T2 construct: also called PfMyoA with its two light chains; MyoA:MTIP:ELC complex; copies: + +
T2 sequence 1: T1 sequence
T2 sequence 2: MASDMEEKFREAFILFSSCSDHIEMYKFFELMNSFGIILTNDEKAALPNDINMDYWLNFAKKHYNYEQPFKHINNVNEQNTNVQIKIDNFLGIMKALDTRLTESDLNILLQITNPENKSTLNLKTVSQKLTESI
T2 sequence 3: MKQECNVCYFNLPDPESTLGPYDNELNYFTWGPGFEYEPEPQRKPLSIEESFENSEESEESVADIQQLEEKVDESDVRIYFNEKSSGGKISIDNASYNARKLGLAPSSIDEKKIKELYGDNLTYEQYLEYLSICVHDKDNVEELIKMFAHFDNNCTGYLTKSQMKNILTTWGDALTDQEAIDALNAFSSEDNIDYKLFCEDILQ
The conditions noted are these: both partners purified.

The data set “cryo-EM structure” deals with the molecule itself.

B1: Plasmodium falciparum essential light chain (natural protein)
chain: T2 sequence 2
notes: also called PfELC; ELC
For the molecule B1, the binding result in data set [1] was “binds”.

B2: Plasmodium falciparum actin 1 filament (natural protein)
chain: not shown
notes: source: polymerised with jasplakinolide
For the molecule B2, the binding result (in data set [1]; with MyoA:ELC:MTIP complex; in “cryo-EM structure”) was “binds” in each case.

These data come from PMC9037914 (PLoS Pathogens, 2022).
